{"source": "paper PMC11554683", "about": "“GNG5 is a novel regulator of Aβ42 production in Alzheimer’s disease” (Cell Death & Disease, 2024)", "biological_target": "the molecule itself", "assay": "western blot (band sizes); recombinant GNG5 (purity >95%) used to assess anti-GNG5 antibodies (Fig. S3B)"}
{"protein": "recombinant GNG5 (G protein subunit gamma 5) (natural protein, UniProt P63218 1-68, looked up, G protein subunit gamma 5 (GNG5); Purity >95% is stated; also called purified GNG5; homotrimer-GNG5; source: E. coli BL21 (DE3), purified (HisTrap HP, PD-10)) MSGSSSVAAMKKVVQQLRLEAGLNRVKVSQAAADLKQFCLQNAQHDPLLTGVSSSTNPFRPQKVCSFL", "values": [{"measurement": "stoichiometry N", "value": 3}]}
